# Results as given in the DeepSol protein solubility set.
# Test: soluble on expression in E. coli; label from the status in PepcDB or PDB records
row,Sequence,soluble on expression in E. coli
1,MAHHHHHHMMDMRQLDVSAVARSAMSCMEAKHMSANVKLYTLGFLTFLASSKSWQPYRMSHPDKVEEQALYEDSELASSFISTKYPAGWQQNASEVLNTKFPGLLGEVTAHLSLGGKDTISALPRRHDGR,not soluble
2,MSLMSSRVTIFTSCNDAYIYLLREGNSQAFPNAVGSKMVNLNTIPPKNGRDYYIALGLEGSANKLGVGIVKHPLLPKHANSDLSYDCEAEMLSNIRDTYVTPPGEGFLPRDTARHHRNWCIRLIKQALAEADIKSPTLDIDVICFTKGPGMGAPLHSVVIAARTCSLLWDVPLVGVNHCIGHIEMGREITKAQNPVVLYVSGGNTQVIAYSEKRYRIFGETLDIAIGNCLDRFARTLKIPNEPSPGYNIEQLAKKAPHKENLVELPYTVKGMDLSMSGILASIDLLAKDLFKGNKKNKILFDKTTGEQKVTVEDLCYSLQENLFAMLVEITERAMAHVNSNQVLIVGGVGCNVRLQEMMAQMCKDRANGQVHATDNRFCIDNGVMIAQAGLLEYRMGGIVKDFSETVVTQKFRTDEVYAAWRDEGHHHHHH,not soluble
3,MNRESFAAGERLVSPAYVRQGCEARRSHEHLIRLLLEKGKCPENGWDESTLELFLHELAIMDSNNFLGNCGVGEREGRVASALVARRHYRFIHGIGRSGDISAVQPKAAGSSLLNKITNSLVLDIIKLAGVHTVANCFVVPMATGMSLTLCFLTLRHKRPKAKYIIWPRIDQKSCFKSMITAGFEPVVIENVLEGDELRTDLKAVEAKVQELGPDCILCIHSTTSCFAPRVPDRLEELAVICANYDIPHIVNNAYGVQSSKCMHLIQQGARVGRIDAFVQSLDKNFMVPVGGAIIAGFNDSFIQEISKMYPGRASASPSLDVLITLLSLGSNGYKKLLKERKEMFSYLSNQIKKLSEAYNERLLHTPHNPISLAMTLKTLDEHRDKAVTQLGSMLFTRQVSGARVVPLGSMQTVSGYTFRGFMSHTNNYPCAYLNAASAIGMKMQDVDLFIKRLDRCLKAVRKERSKESDDNYDKTEDVDIEEMALKLDNVLLDTYQDASS,soluble
4,MALQVASAPHGSSEDSTSASLPANYPYHTRMRRNEYEKAKHDLQIELLKVQSWVKETGQRVVVLFEGRDAAGKGGTIKRFMEHLNPRGARIVALEKPSSQEQGQWYFQRYIQHLPTAGEMVFFDRSWYNRAGVERVMGFCSPLQYLEFMRQAPELERMLTNSGILLFKYWFSVSREEQLRRFISRRDDPLKHWKLSPIDIKSLDKWDDYTAAKQAMFFHTDTADAPWTVIKSDDKKRARLNCIRHFLHSLDYPDKDRRIAHEPDPLLVGPASRVIEEDEKVYAEAAAAPGHANLDIPA,not soluble
5,MLSAFFKTAHCALRNMPIQTDLVGKWNFVSSENFDEYLKEVGVGWAIRTIATKTKPALEFAVNGDEWTMNSNSTFKNYTLKWKLGTASDEKTADGRDVSSVFSIENDHLVQIETGKGGGKDSRIERYIENGKLVIVCTCNGVKCTRVYEKAA,not soluble
6,MSLSNDISILFVEDDKEVRAQISDFLTSNMFKDVYVANNGKDGLLKYNIHKPDIVLSDLNMPIMDGLEMSRAIKALDENTPILLITSNFEKNVTEAAVDIGIEGCLFKPLSLNRVEKILTKYIEKIMFQREFKNKQKLLEQYKSIIDISSSVTKTDINGIITYVNNPFCDMSGYSKDELLGKNHTIISHPDNSKEFYEEIYSTLRDKKIWRGHIKNRRKNGDSYYESSVIAPILDENDEIVECISLKQDITELYAEGHHHHHH,soluble
7,MSCNSFFVFCANSKKEKKDKILEITPQGTTPLPCSRQSRMRDENGSTRTRGGSRGIKSSKEPDSTDDAFKEMAKRLAKKDKPEKTLDFI,soluble
8,AHHHHHHGSKVEGFVASLRNAETIDDLFAILKKKGAPVVEFDGMKKLVIVEGDFEGEKFWTEINGAKANLALGDAMLNAASVPFKCKRDFTGGNLILLDFDSIESNEFLIAYVSEKSGVYFHVKAEEVKEITKEEYDELKDRMPEFKAKSYSEEEMEGMGAFFG,soluble
9,MGSDKIHHHHHHMRVAPAYGKIALLISVSFSHGRHSVQDKNFDALAGKFAKNIYGTPKGEVRAAVLWRDISQAMTQLPEGPLRILDAGGGFGFFSQKLAKLGHSVTLCDISSEMLALGQAQITEYENNSGEKLDITLLHAPIQSLTREELGQFDLILCHAVAEWLSDAKQTLAGLTQLLKPQGLFSLMFYNKEAMRFHSLISGNFDYVAADFKVKKKVGLTPSYPLYIDDVRGWVSDWQMELVTASGVRVIHDYLKTHQPPNSDFSQLLEMELQYSTHPAYIGLGRYVHFITRWQR,not soluble
